In article PMC9478404, “Cyclin-dependent kinase-mediated phosphorylation and the negative regulatory domain of transcription factor B-Myb modulate its DNA binding” (The Journal of Biological Chemistry, 2022):

Target: T1, B-Myb negative regulatory domain NRD^440–600 (human, UniProt P10244-1 440-600)
T1 construct: human B-Myb (MYBL2), negative regulatory domain, amino acids 440 to 600; source: E. coli, purified (Glutathione Sepharose, Q-sepharose, TEV cleavage, Superdex-75); not shown: GST, N-terminal, cleaved
T1 sequence (P10244 440-600): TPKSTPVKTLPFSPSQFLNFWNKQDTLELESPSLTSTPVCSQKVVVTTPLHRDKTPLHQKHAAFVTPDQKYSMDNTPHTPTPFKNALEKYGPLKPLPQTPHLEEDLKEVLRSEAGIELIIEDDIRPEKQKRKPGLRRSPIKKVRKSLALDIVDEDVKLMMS
Experiment: ITC; DBD (500 μM) titrated into NRD (50 μM) at 19 °C; 150 mM NaCl, 20 mM Tris, 1 mM BME (pH 8); MicroCal VP-ITC; mean of three technical replicates
Conditions: both partners purified

B1: B-Myb DNA-binding domain (B-Myb^34–183) (domain or fragment)
chain: not shown
notes: Limits 34-183 are printed for 'the DBD alone' in the FP experiment; also called DBD; B-Myb DBD; source: E. coli, purified (Glutathione Sepharose, Q-sepharose, TEV cleavage, Superdex-75); not shown: GST, N-terminal, cleaved
Kd: 4.5 µM
